Measured values from the nanobody polyreactivity screen of Harvey et al. (2022).

assay: yeast display, Sf9 membrane polyspecificity reagent, FACS + sequencing; frameworks hold sequencing errors
Procedure, shortened: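 A synthetic nanobody library was expressed on Saccharomyces cerevisiae BJ5465 by galactose induction for 36–48 hours. The library was stained for 1 hour at 4 °C with 10% biotinylated, detergent-solubilized Sf9 membrane reagent and enriched with streptavidin microbeads before FACS. Low and high (top ~1%) gates were set on anti-HA fluorescence for expression and streptavidin fluorescence for reagent binding, and each polyreactivity label reflects the gate of origin.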

Row | Sequence | polyreactivity (PSR sort gate)
1 | QVQLVESGGGLVQEGGSLRLSCAASGFTFRYYAMGWYRQAPGKERELVAAIRWNGGSTYYADSVKGRFTISRDNAKNTVYLQMNRLKPEDTAVYYCNAAYSYGRYEYVYWGQGTQVTVSS | high polyreactivity
2 | QVQLVESGRGLVQAGGSLRVSCAASGSILSINGMGWYRQAPGKERELVATIDGSDGSTFYADSVKGRFTISRDNAKNTVYLQMNSLKPEDTAVYYCAAENFWQTKEYDYWGQGTQVTVSS | low polyreactivity
3 | QVHLVDSGGGLVQAGGSLRLSCAASGSTFYYYVMGWYRQAPGKERELVAAISSGGHPNYADSVKGRFTISRDNAKNTVYLEMNSLKPEDTAVYYCAAKARRGTLLRYGYWGQGTQVTVSS | high polyreactivity
4 | QVQLVESGGGLVQAGGSLRLSCAASGRIFILNTMGWYRQAPGKERELVAGISYSGSTYYADSVKGRFTISRDNAKNTVYLQMNSMKPEDTAVYYCAADYDAAWYNDGYYYWGQGTQVTVSS | low polyreactivity
5 | QVQLVESGGGLVQAGGILRLSCAASGYTFWDYAMGWYRQAPGKEREFVAGISFSDGGTYYADSVKVRFTISRDNAKNTVYLQMNSLKPEDTAVYYCAVPQDSGYGVSEHYNWGQGTQVTVSS | low polyreactivity
6 | QVQLVESGGGLVQAGGSLRLSCAASGIIFNYNAMGWYRQAPGKERELVASISSSGGNTYYADSVKGRFTISRDNAKNTVYLQMNSLKPEDTAVYYCAARYVGWRLKRWYEYWGQGTQVTVSS | high polyreactivity
7 | QVQLVESGGGLVQAGGSLRLSCAASGFIFNAYAMGWYRQAPGKERELVAAISTRCSNTYYADSVKGRFTISRDNAMNTVFLQMNSLIPEDTAVYYCAARGYVTYSKSNYWGQGTQVTVSS | high polyreactivity
8 | QVQLVESGGGLVQAGGSLRLSCAASGFIFWQYAMGWYRQAPGKERELVAAISGRGGRTYYADSVKGRFTISRDNAKNTVYLQMNSLKPEDTAVYYCNKVGPLVGGVKYYYWGQGTQVTVSS | high polyreactivity
9 | QVQLVESGGGLVQAGGSLRLSCAASGYTFAWYAMGWYRQAPGKERELVAAITTSGGGTYYADSVKGRFTISRDNAKNTVYLQMNSLKPEDTAVYYCAADTWRDGDDYWGQGTQVTVSS | low polyreactivity
10 | QVQRVESGRGLVQAGGSLRLSCAASGRTFRINAMGWYRQSPGKERELVASINSGGRTYYADSVKGRFTISRDNAKNTVYLQMNSLKPEDTAVYYCAAAGGRTGDYWGQGTQVTGSS | high polyreactivity
11 | QVQLVESGGGLVQAGGSLRLSCAASGRIFYRYAMGWYIQAPWKERELVASISLSGDSTYYADSVKGRFTISRDNAKNTVYLQMNSLKREDTAFYYCDVEGLGAAVYAGDRYDYWGQGTQVTVSS | low polyreactivity
12 | QVQLQASGVGLVQSGGSLRLSCASRGTNFTARFMGWYRQAPGKERELVATITDGGNTNHADRVKGRFTISRDNAKNTVYLQMNSLKPEDAAVYYCAAGEVDNDTLLYWGQGSQVTVSS | low polyreactivity
13 | QVQLVESGGGLVQAGGSLRLSCAASGSTFRYYAMGWYRQAPGKESELVAAITSSGTSTYYADSVKGRFTISRDNAKNTVYLQMNSLKPEDTAVYYCAAPPVYKWVSSRYDYWGQGTQVTVSS | low polyreactivity
14 | QVQLVESGGGLVQAGGSLRLSCAASGRIFYNYGMGWYRQAPGKERELVAAISSSGGSTSYADSVKGRFTISRDNAKNTVYLQMNSLKPEDTAVYYCAASWPRWWRFGYWGQGTQVTVSS | low polyreactivity
15 | QVQLVESGGGLVQAGGSLRLSCAASGFIFGWNAMGWSRQAPGKEREFVAAISWSGGSTYYADSVKGRFTISRDNAKNTVYLQMNSLKPEDTAVYYCAREYHGDSRRYDYWGQGTQVTVSS | high polyreactivity
16 | QVQLGESGGCLVQAGGSLRLICAASGFIFDRYVMGWYRQAPGKESELVAAINRSGGSTYYADSVKGRFTISRDNAKNTVYLQMNSLKRVDTAVYYCADVRPGSFTVEGYYCGQGTQVTVSS | high polyreactivity
17 | QVQLVESGGGLVQAGGSLRLSCAASGFTLVKYVMGWYRPAPGKERELVAAINRSGTSTYYADSVKGRFTISRDNAKNTVYLQMNSLKPEDTAVYYCAAERSRNFDWGQGTQVTVSS | high polyreactivity
18 | QVQLVESGGGLVQAGGRHRLSCAASGYIFKYYAMGWYRQAPGKERELVAAISRSGDSTYYADSVKGRFTISRDHAKNTVYLQMNSLKPEDTAVYYCNARYWHGPTGSDYWGQGTQVTVSS | high polyreactivity
19 | QVQLVESGGGLVQAGGSLRLSCAASGRTFTYYAMGWYRQAPGKERELVAAIRWTGDSTYYADSVKGRFTISRDNAKNTVYLQMNSLKPEDTAVYYCAKQARWQYDGGIRWYYYWGQGTQVTVSS | high polyreactivity
20 | QVQLVESGGGLVQAGGSLRLSCAASGSTFGRNAMGWYRQAPGKERELVAAISTSGSRTYYADSVKGRFTISRDNAKNTVYLQMNSLKPEDTAVYYCNAYGVSRGSYGTRGYWGQGTQVTVSS | high polyreactivity
21 | QVQLVESGGGLVQAGGSLRLSCAASGSTFYRYTMGWYRQAPGKERELVAAISRSGGRTYYADSVKGRFTISRDNAKNTVYLQMNSLIPEDTAVYYCNAEIASSAVQAQEGDYWGQGTQVTVSS | high polyreactivity
22 | QVQLVESGGGVVQAGGSLRLSCASSGSIFGPYVMGWYRQAPGKERELVAAISKSGGSTYYADSVKGRFTISRDNAKNTVFLLMNSLKPEDTAVYYCATDYLGGGKRYYYWGQGTQVTVSS | high polyreactivity

Row | Sequence | polyreactivity (PSR sort gate)
23 | QVQLVESGGGLFQAGGSLRLSCAASGSPFSSYAIGWYRQAPGKERELVAAISYRGTRTRYADSVKGRFTISRDNAKNTVYLQMNSLKPEDTAVYDCAADRTFYGIRFDYWGQGTQVTVSS | low polyreactivity
24 | QVQLVESGGGLVQAGGSLRLSCAASGRTFADYAMGWYRQAPGKERELVAAISWRGGSTYYADSVKGRFTISRDNAKNTVYLQMNSLKPEDTAVYYCNKAYPADYDYWGQGTQVTVSS | low polyreactivity
25 | QVQLVESGGGLDQAGGSLPLSCASSGSIFRSNAMGWSRQPPAKAREMVAAITESGDTTNYADSVKGRFTISRDNAKNTVYLQMNSLKPEDTAVYYCNAGWTMSYVYSQMDYWGQGTQVTVSS | low polyreactivity
26 | QVQLVESGGGLVQAGGSLRLSCAASGFDFSYYDMGWYRQAPGKEREFVASIDWSGGSTYYADSVKGRFTISRDNAKNTDYLQMNSLKAEATAVYYCAAELDYFPGYDYWGQGTQVTVSS | low polyreactivity
27 | QVQLVESGGGLVQAGGSLRLSCAASGSIFGYYTMGWYRQAPGKERELVAAISSSGGRTYYADSVKGRFTISRDNAKNTVYLQLNSLKPEDTAVYYCAAVPIKRGLILGDRGYNYWGQGTQVTVSS | high polyreactivity
28 | QVQLVESGGGLVQAGGSLRLSCAASGLIFTYYAMGWYRQAPGKERELVAAITSGGRTNYADSVKGRFTISRDNAKNTVYLQMNSLKPEDTAVYYCAATSSWRANYRTWVYRYDYWGQGTQVTVSS | high polyreactivity
29 | QVQLVESGGGLFQAGGSLRVSCAASGITFRDNGMVWYRQAPGKERELVAAITSGGSTYYADSVKGSCTISRDHAKNTVYFQMNSLKPEDTAVYLCAAKRIKRRGWRQLSWYDSWGQGTQVTVSS | high polyreactivity
30 | QVQLVESGGGLVQAGGSLRLSCAASGGTFGLDAMGWYRQARGKERELVARISWSSGSTYYADSVKGRFTISRDNAKNTVYLQMNSLKPEDTAVYYCATDTYGAHAFFEFDYWGQGTQVTVSS | low polyreactivity
31 | QVQLVESGGGVVQAGGSLRLSCAASGRIFDLYAMGWYRQAPGKERELVATISGSGGSTYYADSVKGRFTISRDNAKNTVYLQMNSLKPEDTAVYYCAAVSVSSWYDYWGQGTQVTVSS | low polyreactivity
32 | QVQLVESGGGLVQAGGSLRLSCAASGSIFNIYAMGWYRQAPGKERELVATITGIADSTYYADSVKGRFTISRDNAKNTVYLQMNSLKPEDTAVYYCNADPSGVFFYSLEFDYWGQGTQVTVSS | low polyreactivity
33 | QVQLVESGGGLVQAGGSLRLSCAASGRTFGGNAMGWYRQAPGKESELVAAISKSGGRTYYADSVKGRFTISRDNAKNTVYLQMNSLKPEDTAVYYCNKVLSVSQAGGFDYWGQGTQVTVSS | high polyreactivity
34 | QVQLVESGGGLVQAGGSLRFSCAASGSTFRYNAMGWYRQAPGKERELVAVISWGGGRTYYADSVKGRFTISRDNAKNTVYLKMNSLKPEDTAVYYCNVYFGRIVARDYGYWGQGTQVTVSS | high polyreactivity
35 | QVQLVESGGGLVQAGGSLRLSCAASGFIFDYYAMGWYRQAPGKERELVGAITSGDSTNYADSVKGRFTISRDNAKNTVYLQMNSLKPEDTAVYYWGQGTQVTVSS | low polyreactivity
36 | QVQLVESGGGLVQAGGSRRLSCAGSGSTVTGYAMGWYRQAPGKDRELVAAISSRGGSTYYADSVKGRFTISRDNAKTTVYLQMNSLKPEDTAGYYCATSYKSEQYHGKPFYYWGQGTQVTVSS | high polyreactivity
37 | QVQLVESGGGLVQAGGSLRLSCAASGRIFVRYAMGWYRQAPGKERELVAAISYRGGSTYYADSVKGRFTISRDNAKNTVYLQMNSLKPEDTAVYYCAARNSYGNWRYYYWGQGTQVTVSS | high polyreactivity
38 | QVQLVESGGGLVQAGGSLRLSSAASGRTFRYNAMGWYRQAPGKERELVAAISWSGTSTYYADSVKGRFTISRDNAKNTVYLQMNSLKPEDTAVYYCAARGLYDYGYWGQGTQVTVSS | high polyreactivity
39 | QVQLVESCGGLVQAGGSLRLTCAASGSTFTIYAMGWYRQAPGKERELVAVISSSGGSTYYADSVKGRFTISRDYAKNTVYLQMNSLKPEDTAVYYCAADTRYFGGYLTLYYWGQGTQVTVSS | low polyreactivity
40 | QVQLVESGGGLVQAGGSLRLSCAASGLTFYTYAMGWYRQAPGKERELVAAISTNGGSTYADSVKGRFTISRDNAKNTVYLQMNSLKPEDTAVYYCAAVYRTTRYGYWGQGTQVTVSS | low polyreactivity
41 | QFHLVESGGGLVQAGGSLRLSCAASGYTFGKYAKGWYRHAPGKDRELVAGISSRGGSTYYADSVKWRFTISRDNAKNTVYLQMISLKPEYTAVYYCAAVAYTGGPRKLSFNYWGQGTQVTLSS | high polyreactivity
42 | QVQLVESGGGLVQAGGSLRLSCAASGRTFRRYTMGWYRQAPGKERELVAAITTSGGSTYYADSVKGRFTISRDNAKNTVYLQMNSLKPEDTAVYYCAATRRYSGDYWGQGTQVTVSS | high polyreactivity
43 | QVQLVESGGGLVQAGGSLRLSCAASGRISYSYAMGWYRQAPGKERELVAAISYSGGTTYYADSVKGRFTISRDNAKNTVYLQMNSLKPEDTAVYYCAVDGYDTYGFNGYYIRSGYWGQGTQVTVSS | low polyreactivity
